Values quoted from earlier work as cited in US12420014B2, “Dosing of incretin pathway drugs” (Closed Loop Medicine Ltd., priority 2023, dated 2025).

Tests used:
[1] = subcutaneous administration, patient study data
[2] = PK studies
[3] = for a given plasma level; FIG. 2B [2]
[4] = all adverse effects, nausea, vomiting; FIG. 13 [1]

semaglutide
higher clearance observed in patients with Type 2 diabetes [1]: 12%
dependence of plasma concentration on other co-medications [2]: do not show a significant dependence
HbA1c reduction at high starting HbA1c (>8.7%) relative to lower starting levels (<7.4%) [3]: 3 fold
plasma level below which side effects reduce [4]: less than 50 nmol/L
